The values that follow come from publication PMC8531357, “Regulation of plant phototropic growth by NPH3/RPT2-like substrate phosphorylation and 14-3-3 binding” (Nature Communications, 2021).

Assay [1] concerns the target 14-3-3 Epsilon (UniProt P48347). Description: far-western of anti-GFP IP, GST-14-3-3 probe. Particulars: reference: wild-type GFP-NPH3; sites S744.
The target in assay [2] is T1, GFP-NPH3 (NON-PHOTOTROPIC HYPOCOTYL 3) (Arabidopsis, UniProt Q9FMF5 1-746, phosphoserine at 744 after blue light irradiation (pS744 antibody), not in darkness; phosphorylated on multiple other sites in darkness (including S213, S223, S233, S237), dephosphorylated after blue …).
T1 construct: NPH3 (NON-PHOTOTROPIC HYPOCOTYL 3), Arabidopsis; S746 is the last residue; The state of the protein differs between dark and blue-light-treated seedlings; the two are kept apart by the assay; also called NPH3::GFP-NPH3; source: etiolated Arabidopsis nph3 seedlings expressing NPH3::GFP-NPH3; total protein extract, anti-GFP immunoprecipitated
T1 sequence (looked up): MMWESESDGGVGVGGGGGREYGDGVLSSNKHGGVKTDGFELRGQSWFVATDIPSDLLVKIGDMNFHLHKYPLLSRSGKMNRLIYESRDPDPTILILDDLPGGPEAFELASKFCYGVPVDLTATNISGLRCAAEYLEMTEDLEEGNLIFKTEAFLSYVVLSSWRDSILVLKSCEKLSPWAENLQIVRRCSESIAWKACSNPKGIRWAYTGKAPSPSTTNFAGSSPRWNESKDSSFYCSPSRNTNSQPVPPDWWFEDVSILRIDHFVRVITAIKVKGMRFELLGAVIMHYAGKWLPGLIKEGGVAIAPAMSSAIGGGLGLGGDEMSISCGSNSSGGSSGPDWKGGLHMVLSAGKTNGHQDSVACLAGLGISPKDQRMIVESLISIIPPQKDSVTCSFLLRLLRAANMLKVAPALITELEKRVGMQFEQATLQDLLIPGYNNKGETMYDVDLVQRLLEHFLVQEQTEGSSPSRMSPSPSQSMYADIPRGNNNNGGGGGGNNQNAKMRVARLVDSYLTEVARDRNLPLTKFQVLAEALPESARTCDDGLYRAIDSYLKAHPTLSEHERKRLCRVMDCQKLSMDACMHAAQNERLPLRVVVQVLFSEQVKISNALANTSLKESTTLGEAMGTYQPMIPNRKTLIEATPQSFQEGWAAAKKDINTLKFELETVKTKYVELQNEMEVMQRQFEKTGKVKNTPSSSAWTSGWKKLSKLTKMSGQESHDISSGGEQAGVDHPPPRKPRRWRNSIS
The experiment in a line: far-Western, overlay or dot blot; GFP-Trap immunoprecipitates from etiolated seedlings irradiated with 20 µmol m^-2 s^-1 blue light for 15 min (L), separated by SDS-PAGE, on PVDF; probed with purified GST-14-3-3 or GST alone at 1 µM in 20 mM HEPES-KOH pH 7.7, 75 mM KCl, 0.1 mM EDTA, 1 mM DTT, 2% milk, 0.04% Tween-20; detected with anti-GST. Particulars: both partners purified.

The target of assay [3] is T2, GFP-NPH3 S746A (Arabidopsis, UniProt Q9FMF5 1-746, S746A, phosphoserine at 744 after blue light irradiation, at a reduced level (pS744 antibody)).
T2 construct: NPH3, Arabidopsis; source: etiolated Arabidopsis nph3 seedlings expressing NPH3::GFP-NPH3 S746A; total protein extract, anti-GFP immunoprecipitated
T2 sequence (looked up): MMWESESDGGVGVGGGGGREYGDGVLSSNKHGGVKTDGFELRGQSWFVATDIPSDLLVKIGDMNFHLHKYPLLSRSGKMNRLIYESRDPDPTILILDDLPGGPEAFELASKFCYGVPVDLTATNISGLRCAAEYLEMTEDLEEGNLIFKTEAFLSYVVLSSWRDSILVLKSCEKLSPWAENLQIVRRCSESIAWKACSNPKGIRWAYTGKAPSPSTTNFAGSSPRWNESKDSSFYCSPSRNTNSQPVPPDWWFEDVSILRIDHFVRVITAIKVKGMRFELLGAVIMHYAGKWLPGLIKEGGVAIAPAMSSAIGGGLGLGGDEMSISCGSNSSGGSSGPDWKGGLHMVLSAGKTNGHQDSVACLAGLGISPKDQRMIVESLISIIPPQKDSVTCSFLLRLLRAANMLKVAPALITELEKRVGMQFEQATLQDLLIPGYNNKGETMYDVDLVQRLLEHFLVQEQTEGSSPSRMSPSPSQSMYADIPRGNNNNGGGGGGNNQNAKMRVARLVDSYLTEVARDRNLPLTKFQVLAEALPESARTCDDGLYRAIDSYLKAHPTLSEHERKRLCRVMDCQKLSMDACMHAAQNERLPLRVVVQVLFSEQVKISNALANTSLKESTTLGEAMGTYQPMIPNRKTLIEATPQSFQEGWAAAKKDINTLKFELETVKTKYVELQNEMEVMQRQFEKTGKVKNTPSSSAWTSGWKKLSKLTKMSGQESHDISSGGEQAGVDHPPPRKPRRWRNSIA
The assay is described as above. The note with it: both partners purified.

For the molecule “NPH3 (NON-PHOTOTROPIC HYPOCOTYL 3) (from UniProt Q9FMF5) S744A”, the “binding against the reference” value in assay [1] is listed as “lost”.

B1: GST-14-3-3 Lambda (natural protein, Arabidopsis, UniProt P48349 1-248, looked up)
chain: MAATLGRDQYVYMAKLAEQAERYEEMVQFMEQLVTGATPAEELTVEERNLLSVAYKNVIGSLRAAWRIVSSIEQKEESRKNDEHVSLVKDYRSKVESELSSVCSGILKLLDSHLIPSAGASESKVFYLKMKGDYHRYMAEFKSGDERKTAAEDTMLAYKAAQDIAAADMAPTHPIRLGLALNFSVFYYEILNSSDKACNMAKQAFEEAIAELDTLGEESYKDSTLIMQLLRDNLTLWTSDMQEQMDEA
notes: Arabidopsis 14-3-3 isoform Lambda (non-epsilon group member), expressed from pGEX-4T1 as a translational fusion with GST; source: E. coli BL21(DE3), purified (glutathione agarose)
For B1, in assay [2], the binding result is “binds”.

B2: GST-14-3-3 Epsilon (natural protein, Arabidopsis, UniProt P48347 1-254, looked up)
chain: MENEREKQVYLAKLSEQTERYDEMVEAMKKVAQLDVELTVEERNLVSVGYKNVIGARRASWRILSSIEQKEESKGNDENVKRLKNYRKRVEDELAKVCNDILSVIDKHLIPSSNAVESTVFFYKMKGDYYRYLAEFSSGAERKEAADQSLEAYKAAVAAAENGLAPTHPVRLGLALNFSVFYYEILNSPESACQLAKQAFDDAIAELDSLNEESYKDSTLIMQLLRDNLTLWTSDLNEEGDERTKGADEPQDEN
notes: Arabidopsis 14-3-3 isoform Epsilon (epsilon group member), expressed from pGEX-4T1 as a translational fusion with GST; source: E. coli BL21(DE3), purified (glutathione agarose)
As to B2, the binding result in assay [2] and in assay [3] was “binds” throughout.
